Assay results published in patent publication US20190127478A1.

Columns and labels:
FcgRIa = assay: Octet RED 96
FcgRIIb = assay: Octet RED 96
FcRn = assay: Octet RED 96
FcgRIIaH = assay: Octet RED 96
FcgRIIIaV = assay: Octet RED 96
[1] = target: cynomolgus monkey PD-1 (soluble analyte, Octet RED 96) (UniProt B0LAJ3); assay: Octet RED 96
[2] = target: Human PD-1 (soluble analyte, Octet RED 96) (human) (UniProt Q15116); assay: Octet RED 96
[3] = target: human PD1 receptor on Jurkat-PD1-NFAT-Luc2 reporter cells (human) (UniProt Q15116); assay: cell-based or functional assay
Sequence of human PD1 receptor on Jurkat-PD1-NFAT-Luc2 reporter cells (human) (Q15116 25-288): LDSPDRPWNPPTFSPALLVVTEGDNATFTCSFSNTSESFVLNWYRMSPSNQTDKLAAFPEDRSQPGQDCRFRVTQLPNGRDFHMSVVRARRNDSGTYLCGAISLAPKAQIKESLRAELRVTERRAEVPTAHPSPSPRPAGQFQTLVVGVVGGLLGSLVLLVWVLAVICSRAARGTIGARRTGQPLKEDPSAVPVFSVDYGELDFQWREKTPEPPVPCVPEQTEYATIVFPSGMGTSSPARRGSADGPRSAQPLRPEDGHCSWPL

Sequence of Human PD-1 (soluble analyte, Octet RED 96) (human) (Q15116 25-167): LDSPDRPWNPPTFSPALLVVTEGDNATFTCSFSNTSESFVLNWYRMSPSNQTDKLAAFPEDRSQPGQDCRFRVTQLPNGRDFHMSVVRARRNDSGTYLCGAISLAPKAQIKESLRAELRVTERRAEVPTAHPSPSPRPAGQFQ

Kd (FcgRIa) [nM] | Kd (FcgRIIb) [nM] | Kd (FcRn) [nM] | Kd (FcgRIIaH) [nM] | Kd (FcgRIIIaV) [µM] | Kd [1] [pM] | Kd [2] [nM] | effective dose (ED50), reactivation of NFAT-luciferase luminescence in Jurkat-PD1-NFAT reporter line [3] | Substance
50 | 2300 | 5.1 | 1300 | 5 |  |  |  | Pembrolizumab IgG4
64 | 280 | 9.52 | 1600 | 4.2 |  |  |  | Nivolumab IgG4
 |  |  |  |  | < 1 | 0.186 |  | BCD-100
 |  |  |  |  |  |  | 115 | BCD-100 (antibody)
